The text below walks through data of the supplement of paper PMC6379048.

The EC50 is the concentration giving half of the maximal effect.

One data set concerns the target T1, XAB2 (UniProt Q9HCS7).
T1 sequence: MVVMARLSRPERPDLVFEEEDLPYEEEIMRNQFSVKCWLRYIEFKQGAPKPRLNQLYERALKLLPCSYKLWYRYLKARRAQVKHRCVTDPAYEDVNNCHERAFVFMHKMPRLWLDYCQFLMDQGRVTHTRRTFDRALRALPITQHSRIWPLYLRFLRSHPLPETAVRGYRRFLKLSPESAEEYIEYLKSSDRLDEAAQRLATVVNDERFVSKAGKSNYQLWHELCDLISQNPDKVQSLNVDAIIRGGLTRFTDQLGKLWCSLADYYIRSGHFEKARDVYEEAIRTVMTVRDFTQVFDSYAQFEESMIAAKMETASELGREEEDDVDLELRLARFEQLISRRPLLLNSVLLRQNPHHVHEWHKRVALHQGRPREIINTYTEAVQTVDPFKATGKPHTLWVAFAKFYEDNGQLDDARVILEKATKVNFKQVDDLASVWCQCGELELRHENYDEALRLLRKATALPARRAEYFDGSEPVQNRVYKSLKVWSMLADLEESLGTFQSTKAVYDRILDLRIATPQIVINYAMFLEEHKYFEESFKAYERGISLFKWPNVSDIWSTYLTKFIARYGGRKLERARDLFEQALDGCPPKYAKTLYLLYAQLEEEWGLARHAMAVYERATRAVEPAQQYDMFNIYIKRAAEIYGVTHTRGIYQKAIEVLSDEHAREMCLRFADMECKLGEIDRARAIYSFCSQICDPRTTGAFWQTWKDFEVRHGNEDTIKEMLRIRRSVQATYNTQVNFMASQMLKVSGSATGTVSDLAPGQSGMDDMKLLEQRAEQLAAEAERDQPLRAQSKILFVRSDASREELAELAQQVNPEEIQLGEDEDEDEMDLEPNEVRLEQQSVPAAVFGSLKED
Description: EC50 of free RNA motif oligo competing protein binding to immobilised probe. In a few lines: (§1)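 Free RNA oligos (0 nM to 30 μM) competed for 1 h at 4°C in HEK293-FT lysate (2.5 mg protein/well) before a 30 min, 4°C pulldown with the same oligos on NHS-Sepharose beads. Bound proteins were quantified by label-free LC-MS/MS and normalised to the control. Kd was found by multiplying EC50, from a four-parameter log-logistic fit, by a protein-dependent depletion factor.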

A further data set deals with T2, FIP1L1 (UniProt Q6UN15).
T2 sequence: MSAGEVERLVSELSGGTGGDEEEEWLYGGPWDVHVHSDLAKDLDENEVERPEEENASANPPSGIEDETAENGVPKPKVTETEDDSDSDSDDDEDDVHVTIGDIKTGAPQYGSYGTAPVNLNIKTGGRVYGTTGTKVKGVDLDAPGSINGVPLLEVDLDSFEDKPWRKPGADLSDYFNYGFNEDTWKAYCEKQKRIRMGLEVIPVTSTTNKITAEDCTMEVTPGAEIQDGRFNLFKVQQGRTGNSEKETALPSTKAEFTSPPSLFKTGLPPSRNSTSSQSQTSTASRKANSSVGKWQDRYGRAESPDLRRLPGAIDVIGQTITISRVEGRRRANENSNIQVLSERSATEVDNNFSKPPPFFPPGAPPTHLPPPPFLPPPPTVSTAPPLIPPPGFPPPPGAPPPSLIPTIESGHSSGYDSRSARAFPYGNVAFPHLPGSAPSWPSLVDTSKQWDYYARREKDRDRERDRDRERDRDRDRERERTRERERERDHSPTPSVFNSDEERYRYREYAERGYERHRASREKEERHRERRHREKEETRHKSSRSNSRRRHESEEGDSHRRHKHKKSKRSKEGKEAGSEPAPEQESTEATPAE
The data set is described as above. The method in brief: as §1

As to AAUAAA, the 50% effective concentration (EC50) with XAB2 was 1370 nM; in the data set with FIP1L1, 64.8 nM.
The like results for UAUUUAU were, in that order, 601 nM and 1390 nM.
